The values that follow are results of earlier work, collected in publication PMC5605561.

The series addresses B2R (Homo sapiens) (UniProt P30411).
Chain of UniProt P30411 (P30411 whole entry): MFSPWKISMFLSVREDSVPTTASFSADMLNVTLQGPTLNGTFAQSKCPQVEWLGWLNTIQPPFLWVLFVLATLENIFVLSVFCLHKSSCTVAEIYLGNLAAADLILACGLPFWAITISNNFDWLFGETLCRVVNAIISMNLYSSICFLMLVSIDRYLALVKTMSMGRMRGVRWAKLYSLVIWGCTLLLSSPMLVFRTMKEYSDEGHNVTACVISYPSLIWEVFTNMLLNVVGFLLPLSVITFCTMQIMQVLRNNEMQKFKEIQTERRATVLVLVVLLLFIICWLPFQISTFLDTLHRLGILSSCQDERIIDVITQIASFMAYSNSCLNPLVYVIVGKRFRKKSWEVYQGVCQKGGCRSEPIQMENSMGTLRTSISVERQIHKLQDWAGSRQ

What is called Kd is the free concentration of one partner at which half of the binding sites on the other are occupied at equilibrium, for simple one-to-one binding. Take “bradykinin bradykinin (from UniProt P01042)”: the Kd was 0.01 µM.
